From paper PMC10322944, “Cryo-EM and femtosecond spectroscopic studies provide mechanistic insight into the energy transfer in CpcL-phycobilisomes” (Nature Communications, 2023)

B4: CpcL (linker protein of CpcL-PBS) (natural protein, UniProt P74625 1-249, looked up)
chain: MTLPLIAYAPVSQNQRVTNYEVSGDEHARIFTTEGTLSPSAMDNLIAAAYRQVFNEQQMIQSNRQIALESQFKNQQITVRDFIRGLALSDSFRRRNFEVNNNYRFVQMCIQRLLGRDVYSEEEKIAWSIVIATKGLPGFINELLNSQEYLENFGYDTVPYQRRRILPQRISGELPFARMPRYGADHREKLEAIGYFRNQAPLTYRWEWQKQPYPAGVYLAGKVVLYVGGALVSLGIIAVALSAWGIIGL
notes: linker protein CpcL (also called CpcG2) of Synechocystis sp; PCC 6803; Pfam00427 domain resolved, transmembrane region not resolved in the map; native protein in the isolated CpcL-PBS; model started from the AlphaFold database entry; also called CpcG2; source: endogenous, Synechocystis 6803 ΔapcAB mutant strain; purified as part of CpcL-PBS (sucrose gradient)
B5: CpcC1 (rod linker protein) (natural protein)
chain: not shown
notes: phycocyanin-associated rod linker CpcC1 of Synechocystis sp; PCC 6803; Pfam00427 domain at the N-terminus, Pfam01383 domain at the C-terminus; native protein in the isolated CpcL-PBS; model started from the AlphaFold database entry; source: endogenous, Synechocystis 6803 ΔapcAB mutant strain; purified as part of CpcL-PBS (sucrose gradient)

Legend:
Assay in all cases: cryo-EM structure; CpcL-PBS isolated from the ΔapcAB strain on a sucrose gradient (0.75 M K/Na-PO4 pH 7.0, 0.0125% glutaraldehyde, 0.03% β-DDM, 22 °C); phosphate diluted on the grid with 50 mM Tris pH 7.0, 0.01% β-DDM; map at 2.64 Å
[1] = target: T1, three-domain ferredoxin-NADP+ oxidoreductase (FNR3D) (Synechocystis sp. PCC 6803 (endogenous …, UniProt Q55318 1-413)); conditions: both partners purified
T1 construct: ferredoxin-NADP+ oxidoreductase (PetH) of Synechocystis sp; only the CpcD (Pfam01383) domain is resolved in the map; model started from the AlphaFold database entry of PetH; also called PetH; source: endogenous, Synechocystis 6803 ΔapcAB mutant strain; purified as part of CpcL-PBS (sucrose gradient)
T1 sequence (Q55318 whole entry): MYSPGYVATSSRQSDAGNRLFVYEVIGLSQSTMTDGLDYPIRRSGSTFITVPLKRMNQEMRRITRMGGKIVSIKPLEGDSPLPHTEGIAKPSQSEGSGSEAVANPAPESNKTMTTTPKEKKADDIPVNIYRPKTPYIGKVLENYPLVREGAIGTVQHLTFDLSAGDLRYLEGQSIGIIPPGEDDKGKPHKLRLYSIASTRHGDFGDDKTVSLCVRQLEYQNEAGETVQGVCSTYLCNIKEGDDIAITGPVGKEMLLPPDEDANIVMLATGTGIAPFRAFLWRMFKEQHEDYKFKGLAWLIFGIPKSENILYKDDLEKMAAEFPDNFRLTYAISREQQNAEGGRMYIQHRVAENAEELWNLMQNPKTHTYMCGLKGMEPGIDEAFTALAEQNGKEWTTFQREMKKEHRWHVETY

[2] = target: the molecule itself
[3] = target: B4; conditions: both partners purified
[4] = target: B5; conditions: both partners purified

B1: CpcC2 (rod linker protein) (natural protein)
chain: not shown
notes: phycocyanin-associated rod linker CpcC2 of Synechocystis sp; PCC 6803; Pfam00427 domain at the N-terminus, Pfam01383 domain at the C-terminus; native protein in the isolated CpcL-PBS; model started from the AlphaFold database entry; source: endogenous, Synechocystis 6803 ΔapcAB mutant strain; purified as part of CpcL-PBS (sucrose gradient)
Does B1 bind [1]?
Result: binds

B2: phycocyanin (PC) αβ monomer (CpcA-CpcB heterodimer) (complex)
chain 1: not shown
chain 2: MFDVFTRVVSQADARGEYLSGSQLDALSATVAEGNKRIDSVNRITGNASAIVSNAARALFAEQPQLIQPGGNAYTSRRMAACLRDMEIILRYVTYATFTGDASVLEDRCLNGLRETYVALGVPGASVAAGVQKMKEAALDIVNDPNGITRGDCSAIVAEIAGYFDRAAAAVA
modifications: phycocyanobilin (PCB) covalently attached (bilin α84) | phycocyanobilin (PCB) covalently attached (bilins β82 and β152; printed β155 in p-0013)
notes: C-phycocyanin alpha subunit CpcA of Synechocystis sp; PCC 6803; as m1; C-phycocyanin beta subunit CpcB of Synechocystis sp; as m2; made for the self-association of the αβ monomer into trimers and hexamers; 18 αβ monomers stand in the three-layered CpcL-PBS; source: endogenous, Synechocystis 6803 ΔapcAB mutant strain; purified as part of CpcL-PBS (sucrose gradient)
How did the “stoichiometry N” value [2] turn out when B2 was run?
Its value is 6.

B3: CpcB (phycocyanin β subunit) (natural protein, UniProt Q54714 1-172, looked up)
chain: MFDVFTRVVSQADARGEYLSGSQLDALSATVAEGNKRIDSVNRITGNASAIVSNAARALFAEQPQLIQPGGNAYTSRRMAACLRDMEIILRYVTYATFTGDASVLEDRCLNGLRETYVALGVPGASVAAGVQKMKEAALDIVNDPNGITRGDCSAIVAEIAGYFDRAAAAVA
modifications: phycocyanobilin (PCB) covalently attached (bilins β82 and β152; printed β155 in p-0013)
notes: C-phycocyanin beta subunit CpcB of Synechocystis sp; PCC 6803; native protein in the isolated CpcL-PBS; 18 copies in the three-layered CpcL-PBS; also called β-PC; PC β subunit; source: endogenous, Synechocystis 6803 ΔapcAB mutant strain; purified as part of CpcL-PBS (sucrose gradient)
Does B3 bind [3]?
Result: binds

Does B4 bind [4]?
Result: binds

For B5, which “stoichiometry N” value [3] is on record?
The value was 1.
